Assays:
抗体BA03-A [1] = experiment: binding ELISA on coated BA03-A, relative activity vs reference; formulation F8 after 8 weeks at 40 C
抗体BA03-A [2] = experiment: binding ELISA on coated BA03-A, relative activity vs reference; formulations F1-F11 at T0
抗体BA03-A [3] = experiment: binding ELISA on coated BA03-A, relative activity vs reference; formulations after 8 weeks at 2-8 C
抗体BA03-A [4] = experiment: binding ELISA on coated BA03-A, relative activity vs reference; formulations after 4 weeks at 40 C
抗体BA03-A [5] = experiment: binding ELISA on coated BA03-A, relative activity vs reference; formulation F3 after 8 weeks at 40 C
抗体BA03-A [6] = experiment: binding ELISA on coated BA03-A, relative activity vs reference; formulation F7 after 8 weeks at 40 C

B1: 抗体BA03 (重组人源化抗表皮生长因子受体单克隆抗体) (antibody, V domains shown)
VH: QVQLQESGPGLVKPSETLSLTCTVSGFSLSNYDVHWVRQAPGKGLEWLGVIWSGGNTDYNTPFTSRLTISVDTSKNQFSLKLSSVTAADTAVYYCARALDYYDYEFAYWGQGTLVTVSS
VL: EIVLTQSPDFQSVTPKEKVTITCRASQSIGTNIHWYQQKPDQSPKLLIKYASESISGIPSRFSGSGSGTDFTLTINSLEAEDAATYYCQQNNEWPTSFGQGTKLEIK
- 活性 (Binding elisa, % relative to the reference) (抗体BA03-A [1]): 91.7%
- 生物活性 (Binding elisa, % relative to the reference) (抗体BA03-A [2]): 97.1 to 105%
- 结合活性 (Binding elisa, % relative to the reference) (抗体BA03-A [3]): 93.3 to 111%
- 生物活性 (Binding elisa, % relative to the reference) (抗体BA03-A [4]): 47.3 to 102%
- 活性 (Binding elisa, % relative to the reference) (抗体BA03-A [5]): 89.7%
- 活性 (Binding elisa, % relative to the reference) (抗体BA03-A [6]): 55.2%
